Results reported in patent publication US20260275317A1, “CHIMERIC ENDOLYSINS WITH ACTIVITY AGAINST STREPTOCOCCI AND STAPHYLOCOCCI” (UNIVERSITEIT GENT, priority 2023, published 2026).
Values joined by “and” are separate entries in the source; they are usually repeats but may differ in a detail not shown here. Equal entries are not always repeated.

How the values were obtained:
[1] = test system: stationary phase S. uberis; assay: Time killing assay (TKA), S. uberis; format: cell-based, Streptococcus uberis; conditions: for ΔLog10 (CFU/mL): 1 h
Protocol: Concerning the time killing assay, an overnight bacterial culture was diluted 1:10 for S. uberis, S. agalactiae-& dysgalactiae or 1:100 for S. aureus in PBS or UHT-pasteurized whole cow's milk. […] Finally, these fractions were serially diluted 1:10 in PBS. 5 μL of each fraction was spotted on TSA or BHI-agar and incubated overnight at 37° C. The following day, colony forming units (CFU) were counted and converted to CFU/mL to calculate logarithmic reductions in comparison with the negative control. The relative scores were calculated by dividing the observed logarithmic reduction for each endolysin by the maximal reduction observed for that specific condition and strain. Next, this value was divided by the number of conditions and strains tested (i.e., 8=4 bacterial strains×2 conditions (PBS/UHT-milk)). As such, the best performing candidate in each individual assay received a score of 0.125 (=(1/1)/8). […] Turbidity reduction assays were performed by combining 100 μL of overnight grown bacterial cells with an equal volume of purified enzyme at the desired concentration. Bacterial cells were washed with PBS and resuspended in a 1:1 ratio with enzyme to an OD600 of approximately 1.0. Next, the OD600 was measured using a Tecan infinite 200 PRO plate reader (Tecan, Switzerland) every 15 seconds at 37° C., shaking the 96-well plate between each measurement.
(§1) Time killing and turbidity reduction assays were performed as previously described in 1.3.1.
Time killing assays were performed as previously described in 1.3.1.

S. agalactiae = assay: Turbidity reduction assay (TRA), S. agalactiae; format: cell-based, Streptococcus agalactiae
Protocol: Concerning the time killing assay, an overnight bacterial culture was diluted 1:10 for S. uberis, S. agalactiae-& dysgalactiae or 1:100 for S. aureus in PBS or UHT-pasteurized whole cow's milk. A volume of 10 μL thereof was combined with an equal amount of chimeric endolysin in PBS (or only PBS as negative control) in triplicate and incubated in a covered 96-well microtiter plate at 37° C. for 2 h. The dose was low (i.e. 0.25 μM), but this was chosen to differentiate between less and better performing variants, consequently allowing a ranking. Finally, these fractions were serially diluted 1:10 in PBS. 5 μL of each fraction was spotted on TSA or BHI-agar and incubated overnight at 37° C. The following day, colony forming units (CFU) were counted and converted to CFU/mL to calculate logarithmic reductions in comparison with the negative control. The relative scores were calculated by dividing the observed logarithmic reduction for each endolysin by the maximal reduction observed for that specific condition and strain. Next, this value was divided by the number of conditions and strains tested (i.e., 8=4 bacterial strains×2 conditions (PBS/UHT-milk)). As such, the best performing candidate in each individual assay received a score of 0.125 (=(1/1)/8). […] Turbidity reduction assays were performed by combining 100 μL of overnight grown bacterial cells with an equal volume of purified enzyme at the desired concentration. Bacterial cells were washed with PBS and resuspended in a 1:1 ratio with enzyme to an OD600 of approximately 1.0. Next, the OD600 was measured using a Tecan infinite 200 PRO plate reader (Tecan, Switzerland) every 15 seconds at 37° C., shaking the 96-well plate between each measurement.
as §1

[2] = test system: intracellular S. uberis GCC ST-5 in MAC-T and PS cells; assay: Intracellular killing assay in bovine mammary epithelial cell lines; format: cell-based, Streptococcus uberis; conditions: 2.5 μM, 1 h
Protocol: Cells were seeded in a 24-well plate at 50.000 cells/well with the addition of 25 μg/mL calf skin collagen type I (dissolved in 0.1 M acetic acid) (Sigma-Aldrich, USA) and grown to 100% confluency. Next, medium was removed and cells were washed 3× with dPBS to remove residual P/S. An overnight bacterial culture was washed with dPBS, dissolved in an equal volume of prewarmed cell culture media without the addition of P/S and 0.5 mL thereof was incubated with the cells in every well during 3 h at 37° C. to allow intracellular invasion. Afterwards, this suspension was removed, serially diluted and plated as previously described to determine the amount of extracellular bacteria. Cells were again washed 3× with dPBS and 0.5 mL of prewarmed cell culture media was added with the addition of 200 μg/ml gentamycin (Sigma-Aldrich, USA) and incubated during 3 h at 37° C. to kill remaining extracellular and adhered bacteria. Next, this suspension was likewise removed and plated to check if killing of the extracellular and adhered bacteria was successful. Cells were again 3× washed with dPBS and 2.5 µM of prewarmed NC5 in cell culture media without P/S (buffer exchange performed at 4-8° C. by means of a Pierce™ Protein Concentrator PES 10 kDa MWCO) was added during 1 h to eradicate the intracellular bacteria. […]

B1: NC5: chimeric endolysin SEQ ID NO: 17; HIV-1 TAT + PlySs2 CHAP + Ply1081 CW_7 + PlySs9 amidase_3 (protein)
chain: MYGRKKRRQRRRGATTVNEALNNVRAQVGSGVSVGNGECYALASWYERMISPDATVGLGAGVGWVSGAIGDTISAKNIGSSYNWQANGWTVSTSGPFKAGQIVTLGATPGNPYGHVVIVEAVDGDRLTILEQNYGGKRYPVRNYYSAASYRQQVVHYITPPGTVAQSAPNLAGAGIDQLVQETLAGKYGNGEQRKAALGSQYQAVMAVINGKATAPKKTVDQLAQEVIQGKHGNGEDRKKSLGPDYDAVQKRVTEILKGSPSGNIPKTPSDAPKSEVVNSSTEPKTEETGANGKATDTKITKGSGKHLVICGHGQGRTGYDPGAVNAKLGITEAGKVRELSKLMSKYSGQQIDFITEQNVYDYRSITSIGKGYDSITELHFNAFNGSAKGTEVLIQSSLEADKEDMAILSLLSRYFQNRGIKKVDWLYNANQAASRGYTYRLVEIAFIDNEQDMAIFENKKEDIAKGLVSAITGVEVKTIVPSPPSSTVGSSGTPSKSIYLVGDSLRVLPHATHYQTGQKIANWVKGRTYKILQVKNVHQSNSKRAYLLDGIKSWVLEQDVEGTTKGHSKYHHHHHH
ΔLog10 (CFU/mL) ([1]; Clinical S. uberis 1 (Unknown ST and GCC), 0.3 μM): 0.03 Log10 (CFU/mL) | ΔLog10 (CFU/mL) ([1]; Clinical S. uberis 2 (Unknown ST, GCC 5), 0.3 μM): 4.05±0.07 Log10 (CFU/mL) and 4.05 Log10 (CFU/mL) | ΔLog10 (CFU/mL) ([1]; Clinical S. uberis 3 (Unknown ST, GCC 5), 0.3 μM): 1.82 Log10 (CFU/mL) | ΔLog10 (CFU/mL) ([1]; Clinical S. uberis 4 (ST 815, GCC 143), 0.3 μM): 0.00 Log10 (CFU/mL) | ΔLog10 (CFU/mL) ([1]; Clinical S. uberis 5 (ST 944, GCC 5), 0.3 μM): 0.71 Log10 (CFU/mL) | Δ log10 ([1]; S. uberis 0140J, 0.3 μM): 1.16±0.06 log10 | ΔLog10 (CFU/mL) ([1]; Subclinical S. uberis 1 (ST 808, GCC 143), 0.3 μM): 3.02±0.37 Log10 (CFU/mL) and 3.02 Log10 (CFU/mL) | ΔLog10 (CFU/mL) ([1]; Subclinical S. uberis 2 (Unknown ST and GCC), 0.3 μM): 1.13 Log10 (CFU/mL) | ΔLog10 (CFU/mL) ([1]; Subclinical S. uberis 3 (Unknown ST, GCC 5), 0.3 μM): 1.24 Log10 (CFU/mL) | ΔLog10 (CFU/mL) ([1]; Subclinical S. uberis 4 (Unknown ST and GCC), 0.3 μM): 2.48 Log10 (CFU/mL) | log10 reduction ([1]; mastitis-derived S. uberis GCC ST-5, 0.3 μM, versus PBS): 1.17±0.06 log10 | lysis speed (ΔOD600/min)/μM (S. agalactiae; S. agalactiae 1, 0.3 μM): 0.15 (ΔOD600/min)/μM | ΔOD600 (S. agalactiae; S. agalactiae 1, 1 h, 0.3 μM): 0.42 | lysis speed (ΔOD600/min)/μM (S. agalactiae; S. agalactiae 2, 0.3 μM): 0.08 (ΔOD600/min)/μM | ΔOD600 (S. agalactiae; S. agalactiae 2, 1 h, 0.3 μM): 0.39 | lysis speed (ΔOD600/min)/μM (S. agalactiae; S. agalactiae 3, 0.3 μM): 0.12 (ΔOD600/min)/μM | ΔOD600 (S. agalactiae; S. agalactiae 3, 1 h, 0.3 μM): 0.41 | ΔOD600, reductions up to (S. agalactiae; three clinical S. agalactiae isolates, 0.3 μM): up to 0.39±0.02 | Δ Log10 reduction of intracellular S. uberis ([2]; infected MAC-T): 1.62±0.05 Log10 | Δ Log10 reduction of intracellular S. uberis ([2]; infected PS, remaining bacteria at or below detection limit 200 CFU/mL): at least 2.12±0.08 Log10
